Data: US20150344570A1 (published 2015)

T1: FcγRIIb extracellular domain with C-terminal His tag (human, UniProt P31994 43-217)
T1 construct: extracellular domain; Expressed in FreeStyle293 cells; analyte in the SPR assay; also called FcgRIIb; 2b
T1 sequence (looked up): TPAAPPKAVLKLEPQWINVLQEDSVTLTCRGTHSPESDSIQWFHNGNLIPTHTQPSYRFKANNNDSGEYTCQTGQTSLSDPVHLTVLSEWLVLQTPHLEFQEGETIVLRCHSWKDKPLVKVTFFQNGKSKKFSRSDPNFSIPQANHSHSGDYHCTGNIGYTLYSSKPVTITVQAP


Tests used:
[1] = molecular target: T2, FcγRIa extracellular domain with C-terminal His tag (human, UniProt P12314 16-292); test: SPR (Biacore), relative binding, HeCon Ab = 100
T2 construct: extracellular domain; Expressed in FreeStyle293 cells; analyte in the SPR assay; also called FcgRI; 1a

[2] = molecular target: T1, FcγRIIb extracellular domain with …; test: SPR (Biacore), relative binding, HeCon Ab = 100
[3] = molecular target: T2, FcγRIa extracellular domain with …; test: SPR (Biacore); He/Con_1a divided by He/Con_2b (FcγRIa against FcγRIIb)

T2 sequence (P12314 16-292): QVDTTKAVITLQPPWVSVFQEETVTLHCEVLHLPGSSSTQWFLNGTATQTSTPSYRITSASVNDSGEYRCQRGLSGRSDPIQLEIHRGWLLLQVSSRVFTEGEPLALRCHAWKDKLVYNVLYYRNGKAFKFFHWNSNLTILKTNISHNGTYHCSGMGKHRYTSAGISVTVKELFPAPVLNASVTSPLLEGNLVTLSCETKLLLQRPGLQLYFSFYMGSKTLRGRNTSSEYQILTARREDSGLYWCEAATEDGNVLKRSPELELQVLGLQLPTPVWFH

Row | Binder | He/Con_1a [1] | He/Con_2b [2] | He_1a/2b (Ia/IIb) [3] [ratio]
1 | GpH7-A5/GpH7-B3 variant G236_03V/GpL16-k0 (He Ab) (antibody, human IgG1, kappa, He Ab: mutation in one H chain only) heavy 1: not shown heavy 2: not shown light: DIVMTQSPLSLPVTPGEPASISCQASESLVHSNRNTYLHWYLQKPGQSPQLLIYKVSNRFSGVPDRFSGSGSGTDFTLKISRVEAEDVGVYYCSQNTHVPPTFGQGTKVEIERTVAAPSVFIFPPSDEQLKSGTASVVCLLNNFYPREAKVQWKVDNALQSGNSQESVTEQDSKDSTYSLSSTLTLSKADYEKHKVYACEVTHQGLSSPVTKSFNRGEC | 89.9 % of HeCon Ab (=100) | 35.3 % of HeCon Ab (=100) | 2.55
2 | GpH7-A5/GpH7-B3 variant L235_01G/GpL16-k0 (He Ab) (antibody, human IgG1, kappa, He Ab: mutation in one H chain only) heavy 1: not shown heavy 2: not shown light: DIVMTQSPLSLPVTPGEPASISCQASESLVHSNRNTYLHWYLQKPGQSPQLLIYKVSNRFSGVPDRFSGSGSGTDFTLKISRVEAEDVGVYYCSQNTHVPPTFGQGTKVEIERTVAAPSVFIFPPSDEQLKSGTASVVCLLNNFYPREAKVQWKVDNALQSGNSQESVTEQDSKDSTYSLSSTLTLSKADYEKHKVYACEVTHQGLSSPVTKSFNRGEC | 87.2 % of HeCon Ab (=100) | 35.4 % of HeCon Ab (=100) | 2.46
3 | GpH7-A5/GpH7-B3 variant L234_07I/GpL16-k0 (He Ab) (antibody, human IgG1, kappa, He Ab: mutation in one H chain only) heavy 1: not shown heavy 2: not shown light: DIVMTQSPLSLPVTPGEPASISCQASESLVHSNRNTYLHWYLQKPGQSPQLLIYKVSNRFSGVPDRFSGSGSGTDFTLKISRVEAEDVGVYYCSQNTHVPPTFGQGTKVEIERTVAAPSVFIFPPSDEQLKSGTASVVCLLNNFYPREAKVQWKVDNALQSGNSQESVTEQDSKDSTYSLSSTLTLSKADYEKHKVYACEVTHQGLSSPVTKSFNRGEC | 103 % of HeCon Ab (=100) | 80.9 % of HeCon Ab (=100) | 1.27
4 | GpH7-A5/GpH7-B3 variant L234_06M/GpL16-k0 (He Ab) (antibody, human IgG1, kappa, He Ab: mutation in one H chain only) heavy 1: not shown heavy 2: not shown light: DIVMTQSPLSLPVTPGEPASISCQASESLVHSNRNTYLHWYLQKPGQSPQLLIYKVSNRFSGVPDRFSGSGSGTDFTLKISRVEAEDVGVYYCSQNTHVPPTFGQGTKVEIERTVAAPSVFIFPPSDEQLKSGTASVVCLLNNFYPREAKVQWKVDNALQSGNSQESVTEQDSKDSTYSLSSTLTLSKADYEKHKVYACEVTHQGLSSPVTKSFNRGEC | 104 % of HeCon Ab (=100) | 78.5 % of HeCon Ab (=100) | 1.32
5 | GpH7-A5/GpH7-B3 variant L234_19Q/GpL16-k0 (He Ab) (antibody, human IgG1, kappa, He Ab: mutation in one H chain only) heavy 1: not shown heavy 2: not shown light: DIVMTQSPLSLPVTPGEPASISCQASESLVHSNRNTYLHWYLQKPGQSPQLLIYKVSNRFSGVPDRFSGSGSGTDFTLKISRVEAEDVGVYYCSQNTHVPPTFGQGTKVEIERTVAAPSVFIFPPSDEQLKSGTASVVCLLNNFYPREAKVQWKVDNALQSGNSQESVTEQDSKDSTYSLSSTLTLSKADYEKHKVYACEVTHQGLSSPVTKSFNRGEC | 95.7 % of HeCon Ab (=100) | 60.3 % of HeCon Ab (=100) | 1.59
6 | GpH7-A5/GpH7-B3 variant L234_11K/GpL16-k0 (He Ab) (antibody, human IgG1, kappa, He Ab: mutation in one H chain only) heavy 1: not shown heavy 2: not shown light: DIVMTQSPLSLPVTPGEPASISCQASESLVHSNRNTYLHWYLQKPGQSPQLLIYKVSNRFSGVPDRFSGSGSGTDFTLKISRVEAEDVGVYYCSQNTHVPPTFGQGTKVEIERTVAAPSVFIFPPSDEQLKSGTASVVCLLNNFYPREAKVQWKVDNALQSGNSQESVTEQDSKDSTYSLSSTLTLSKADYEKHKVYACEVTHQGLSSPVTKSFNRGEC | 91.8 % of HeCon Ab (=100) | 16.2 % of HeCon Ab (=100) | 5.67
7 | GpH7-A5/GpH7-B3 variant L234_13S/GpL16-k0 (He Ab) (antibody, human IgG1, kappa, He Ab: mutation in one H chain only) heavy 1: not shown heavy 2: not shown light: DIVMTQSPLSLPVTPGEPASISCQASESLVHSNRNTYLHWYLQKPGQSPQLLIYKVSNRFSGVPDRFSGSGSGTDFTLKISRVEAEDVGVYYCSQNTHVPPTFGQGTKVEIERTVAAPSVFIFPPSDEQLKSGTASVVCLLNNFYPREAKVQWKVDNALQSGNSQESVTEQDSKDSTYSLSSTLTLSKADYEKHKVYACEVTHQGLSSPVTKSFNRGEC | 96.9 % of HeCon Ab (=100) | 59.3 % of HeCon Ab (=100) | 1.63
8 | GpH7-A5/GpH7-B3 variant L234_03V/GpL16-k0 (He Ab) (antibody, human IgG1, kappa, He Ab: mutation in one H chain only) heavy 1: not shown heavy 2: not shown light: DIVMTQSPLSLPVTPGEPASISCQASESLVHSNRNTYLHWYLQKPGQSPQLLIYKVSNRFSGVPDRFSGSGSGTDFTLKISRVEAEDVGVYYCSQNTHVPPTFGQGTKVEIERTVAAPSVFIFPPSDEQLKSGTASVVCLLNNFYPREAKVQWKVDNALQSGNSQESVTEQDSKDSTYSLSSTLTLSKADYEKHKVYACEVTHQGLSSPVTKSFNRGEC | 104 % of HeCon Ab (=100) | 73.1 % of HeCon Ab (=100) | 1.43
9 | GpH7-A5/GpH7-B3 variant G236_04F/GpL16-k0 (He Ab) (antibody, human IgG1, kappa, He Ab: mutation in one H chain only) heavy 1: not shown heavy 2: not shown light: DIVMTQSPLSLPVTPGEPASISCQASESLVHSNRNTYLHWYLQKPGQSPQLLIYKVSNRFSGVPDRFSGSGSGTDFTLKISRVEAEDVGVYYCSQNTHVPPTFGQGTKVEIERTVAAPSVFIFPPSDEQLKSGTASVVCLLNNFYPREAKVQWKVDNALQSGNSQESVTEQDSKDSTYSLSSTLTLSKADYEKHKVYACEVTHQGLSSPVTKSFNRGEC | 96.4 % of HeCon Ab (=100) | 39.3 % of HeCon Ab (=100) | 2.45
10 | GpH7-A5/GpH7-B3 variant L235_02A/GpL16-k0 (He Ab) (antibody, human IgG1, kappa, He Ab: mutation in one H chain only) heavy 1: not shown heavy 2: not shown light: DIVMTQSPLSLPVTPGEPASISCQASESLVHSNRNTYLHWYLQKPGQSPQLLIYKVSNRFSGVPDRFSGSGSGTDFTLKISRVEAEDVGVYYCSQNTHVPPTFGQGTKVEIERTVAAPSVFIFPPSDEQLKSGTASVVCLLNNFYPREAKVQWKVDNALQSGNSQESVTEQDSKDSTYSLSSTLTLSKADYEKHKVYACEVTHQGLSSPVTKSFNRGEC | 92.2 % of HeCon Ab (=100) | 63 % of HeCon Ab (=100) | 1.46
11 | GpH7-A5/GpH7-B3 variant L234_02A/GpL16-k0 (He Ab) (antibody, human IgG1, kappa, He Ab: mutation in one H chain only) heavy 1: not shown heavy 2: not shown light: DIVMTQSPLSLPVTPGEPASISCQASESLVHSNRNTYLHWYLQKPGQSPQLLIYKVSNRFSGVPDRFSGSGSGTDFTLKISRVEAEDVGVYYCSQNTHVPPTFGQGTKVEIERTVAAPSVFIFPPSDEQLKSGTASVVCLLNNFYPREAKVQWKVDNALQSGNSQESVTEQDSKDSTYSLSSTLTLSKADYEKHKVYACEVTHQGLSSPVTKSFNRGEC | 97.5 % of HeCon Ab (=100) | 64.9 % of HeCon Ab (=100) | 1.5
12 | GpH7-A5/GpH7-B3 variant L234_14T/GpL16-k0 (He Ab) (antibody, human IgG1, kappa, He Ab: mutation in one H chain only) heavy 1: not shown heavy 2: not shown light: DIVMTQSPLSLPVTPGEPASISCQASESLVHSNRNTYLHWYLQKPGQSPQLLIYKVSNRFSGVPDRFSGSGSGTDFTLKISRVEAEDVGVYYCSQNTHVPPTFGQGTKVEIERTVAAPSVFIFPPSDEQLKSGTASVVCLLNNFYPREAKVQWKVDNALQSGNSQESVTEQDSKDSTYSLSSTLTLSKADYEKHKVYACEVTHQGLSSPVTKSFNRGEC | 98.6 % of HeCon Ab (=100) | 62.5 % of HeCon Ab (=100) | 1.58
13 | GpH7-A5/GpH7-B3 variant L234_12R/GpL16-k0 (He Ab) (antibody, human IgG1, kappa, He Ab: mutation in one H chain only) heavy 1: not shown heavy 2: not shown light: DIVMTQSPLSLPVTPGEPASISCQASESLVHSNRNTYLHWYLQKPGQSPQLLIYKVSNRFSGVPDRFSGSGSGTDFTLKISRVEAEDVGVYYCSQNTHVPPTFGQGTKVEIERTVAAPSVFIFPPSDEQLKSGTASVVCLLNNFYPREAKVQWKVDNALQSGNSQESVTEQDSKDSTYSLSSTLTLSKADYEKHKVYACEVTHQGLSSPVTKSFNRGEC | 91.8 % of HeCon Ab (=100) | 18.9 % of HeCon Ab (=100) | 4.86
14 | GpH7-A5/GpH7-B3 variant L234_01G/GpL16-k0 (He Ab) (antibody, human IgG1, kappa, He Ab: mutation in one H chain only) heavy 1: not shown heavy 2: not shown light: DIVMTQSPLSLPVTPGEPASISCQASESLVHSNRNTYLHWYLQKPGQSPQLLIYKVSNRFSGVPDRFSGSGSGTDFTLKISRVEAEDVGVYYCSQNTHVPPTFGQGTKVEIERTVAAPSVFIFPPSDEQLKSGTASVVCLLNNFYPREAKVQWKVDNALQSGNSQESVTEQDSKDSTYSLSSTLTLSKADYEKHKVYACEVTHQGLSSPVTKSFNRGEC | 96.1 % of HeCon Ab (=100) | 50.7 % of HeCon Ab (=100) | 1.9
15 | GpH7-A5/GpH7-B3 variant L234_16H/GpL16-k0 (He Ab) (antibody, human IgG1, kappa, He Ab: mutation in one H chain only) heavy 1: not shown heavy 2: not shown light: DIVMTQSPLSLPVTPGEPASISCQASESLVHSNRNTYLHWYLQKPGQSPQLLIYKVSNRFSGVPDRFSGSGSGTDFTLKISRVEAEDVGVYYCSQNTHVPPTFGQGTKVEIERTVAAPSVFIFPPSDEQLKSGTASVVCLLNNFYPREAKVQWKVDNALQSGNSQESVTEQDSKDSTYSLSSTLTLSKADYEKHKVYACEVTHQGLSSPVTKSFNRGEC | 94 % of HeCon Ab (=100) | 59.4 % of HeCon Ab (=100) | 1.58
16 | GpH7-A5/GpH7-B3 variant L234_05P/GpL16-k0 (He Ab) (antibody, human IgG1, kappa, He Ab: mutation in one H chain only) heavy 1: not shown heavy 2: not shown light: DIVMTQSPLSLPVTPGEPASISCQASESLVHSNRNTYLHWYLQKPGQSPQLLIYKVSNRFSGVPDRFSGSGSGTDFTLKISRVEAEDVGVYYCSQNTHVPPTFGQGTKVEIERTVAAPSVFIFPPSDEQLKSGTASVVCLLNNFYPREAKVQWKVDNALQSGNSQESVTEQDSKDSTYSLSSTLTLSKADYEKHKVYACEVTHQGLSSPVTKSFNRGEC | 99.9 % of HeCon Ab (=100) | 72.9 % of HeCon Ab (=100) | 1.37
17 | GpH7-A5/GpH7-B3 variant G236_05P/GpL16-k0 (He Ab) (antibody, human IgG1, kappa, He Ab: mutation in one H chain only) heavy 1: not shown heavy 2: not shown light: DIVMTQSPLSLPVTPGEPASISCQASESLVHSNRNTYLHWYLQKPGQSPQLLIYKVSNRFSGVPDRFSGSGSGTDFTLKISRVEAEDVGVYYCSQNTHVPPTFGQGTKVEIERTVAAPSVFIFPPSDEQLKSGTASVVCLLNNFYPREAKVQWKVDNALQSGNSQESVTEQDSKDSTYSLSSTLTLSKADYEKHKVYACEVTHQGLSSPVTKSFNRGEC | 77 % of HeCon Ab (=100) | 19 % of HeCon Ab (=100) | 4.05
